In PMC6303335 one finds koff data, which are given here for one substance.

This assay deals with VACV B18. As to the kind of experiment: SPR.

On to human IFNα-2b, for which the off-rate constant (koff) (as a rule, the first-order rate constant of dissociation) worked out at 0.000225 s⁻¹.
